Measurements taken from PMC12120888, “Phosphorylation of MdWRKY70L by MdMPK6/02G mediates reactive oxygen accumulation to regulate apple fruit senescence”.

T1: MdWRKY70L (Malus domestica, UniProt A0A7S5EAY7 1-303)
T1 sequence: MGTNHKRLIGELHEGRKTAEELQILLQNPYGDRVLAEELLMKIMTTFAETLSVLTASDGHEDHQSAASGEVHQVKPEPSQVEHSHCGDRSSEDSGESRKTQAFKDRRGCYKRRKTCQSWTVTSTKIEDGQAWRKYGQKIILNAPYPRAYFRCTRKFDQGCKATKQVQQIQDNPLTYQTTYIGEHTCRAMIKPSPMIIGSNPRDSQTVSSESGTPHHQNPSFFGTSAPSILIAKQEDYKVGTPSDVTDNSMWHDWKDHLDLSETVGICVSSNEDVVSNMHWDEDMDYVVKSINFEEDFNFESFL


How the values were obtained:
MdWRKY70L [1] = target: T1, MdWRKY70L; assay: EMSA; LightShift Chemiluminescent EMSA kit (Thermo); buffer, salt, pH and temperature not stated; conditions: protein: recombinant; tags: GST (Results); His (EMSA Methods, pET32a); label: 3' biotin, both strands; blunt
MdWRKY70L [2] = target: T1, MdWRKY70L; assay: competition; 25x, 50x, 100x cold probe vs hot probe N3; LightShift Chemiluminescent EMSA kit (Thermo); buffer, salt, pH and temperature not stated; conditions: protein: recombinant; tags: GST (Results); His (EMSA Methods, pET32a); blunt
MdWRKY70L [3] = target: T1, MdWRKY70L; assay: competition; 25x, 50x, 100x cold probe vs hot probe N1; LightShift Chemiluminescent EMSA kit (Thermo); buffer, salt, pH and temperature not stated; conditions: protein: recombinant; tags: GST (Results); His (EMSA Methods, pET32a); blunt

Row | Binder | binding result (MdWRKY70L [1]) | further results
1 | MdSAG101 W-box hot probe (dsDNA) DNA 1: TCTATATAAAGAGAGACATATTGACCATTCCGGTATCCTCTTCTCT DNA 2: AGAGAAGAGGATACCGGAATGGTCAATATGTCTCTCTTTATATAGA | binds | –
2 | MdSAG101 W-box mutant probe (dsDNA) DNA 1: TCTATATAAAGAGAGACATATCGGCTATTCCGGTATCCTCTTCTCT DNA 2: AGAGAAGAGGATACCGGAATAGCCGATATGTCTCTCTTTATATAGA | no binding | –
3 | MdSAG101 W-box cold probe (dsDNA) DNA 1: TCTATATAAAGAGAGACATATTGACCATTCCGGTATCCTCTTCTCT DNA 2: AGAGAAGAGGATACCGGAATGGTCAATATGTCTCTCTTTATATAGA | – | binding result (MdWRKY70L [2]): binds
4 | MdZAT12 W-box hot probe (dsDNA) DNA 1: CATTGATCTGGATTTCTGTGCTGACTCAGACTCATCGTGGATGCTT DNA 2: AAGCATCCACGATGAGTCTGAGTCAGCACAGAAATCCAGATCAATG | binds | –
5 | MdZAT12 W-box mutant probe (dsDNA) DNA 1: CATTGATCTGGATTTCTGTGCGGCCGCAGACTCATCGTGGATGCTT DNA 2: AAGCATCCACGATGAGTCTGCGGCCGCACAGAAATCCAGATCAATG | no binding | –
6 | MdZAT12 W-box cold probe (dsDNA) DNA 1: CATTGATCTGGATTTCTGTGCTGACTCAGACTCATCGTGGATGCTT DNA 2: AAGCATCCACGATGAGTCTGAGTCAGCACAGAAATCCAGATCAATG | – | binding result (MdWRKY70L [3]): binds
